Literature values as cited in patent publication US20110020368A1, “TREATING CANCER BY DOWN-REGULATING FRIZZLED-4 AND/OR FRIZZLED-1” (priority 2008, published 2011).

Tested on: breast tumor cell lines
Conditions: interference with autocrine WNT pathway activation

B1: sFRP1: extracellular inhibitor of WNT signaling, which competes with FZD receptors for ligand binding (protein, UniProt Q8N474 32-314, looked up)
Secreted frizzled-related …: SEYDYVSFQSDIGPYQSGRFYTKPPQCVDIPADLRLCHNVGYKKMVLPNLLEHETMAEVKQQASSWVPLLNKNCHAGTQVFLCSLFAPVCLDRPIYPCRWLCEAVRDSCEPVMQFFGFYWPEMLKCDKFPEGDVCIAMTPPNATEASKPQGTTVCPPCDNELKSEAIIEHLCASEFALRMKIKEVKKENGDKKIVPKKKKPLKLGPIKKKDLKKLVLYLKNGADCPCHQLDNLSHHFLIMGRKVKSQYLLTAIHKWDKKNKEFKNFMKKMKNHECPTFQSVFK
Effect on proliferation of breast tumor cell lines: blocks proliferation
